{"source": "paper PMC6721692", "key": {"[1]": {"target": "endogenous TrkB of cultured rat hippocampal neurons (rat (endogenous in hippocampal neurons)) (UniProt Q63604)", "experiment": "non-reducing SDS-PAGE and Western blot; lysates of rat hippocampal neurons (vehicle or BDNF 1.0 nM) with SDS, without β-ME; blots with 80E3 and MM12"}, "[2]": {"target": "endogenous TrkB of cultured rat hippocampal neurons (rat (endogenous in hippocampal neurons)) (UniProt Q63604)", "experiment": "native gel or EMSA; native PAGE (no SDS, no β-ME) of lysates of rat hippocampal neurons treated with vehicle or BDNF (1.0 nM, 15 min); Western blot with anti-TrkB antibodies (80E3, MM12)"}}, "data": [{"substance": "endogenous TrkB of cultured rat hippocampal neurons, Q63604 32-821 (receptor; other documents disagree on this pair)", "values": [{"measurement": "stoichiometry N", "setting": "[1]", "result": 2}, {"measurement": "stoichiometry N", "setting": "[2]", "result": 2}]}]}
